Experimental findings from patent publication US20130225493A1 are described below.

This test concerns the target FGFR3-IIIc stably expressed on FDCP cells, P22607. The test can be described thus: cell-based or functional assay.

FGFR3-IIIc stably expressed on FDCP cells, P22607, sequence (P22607 23-806): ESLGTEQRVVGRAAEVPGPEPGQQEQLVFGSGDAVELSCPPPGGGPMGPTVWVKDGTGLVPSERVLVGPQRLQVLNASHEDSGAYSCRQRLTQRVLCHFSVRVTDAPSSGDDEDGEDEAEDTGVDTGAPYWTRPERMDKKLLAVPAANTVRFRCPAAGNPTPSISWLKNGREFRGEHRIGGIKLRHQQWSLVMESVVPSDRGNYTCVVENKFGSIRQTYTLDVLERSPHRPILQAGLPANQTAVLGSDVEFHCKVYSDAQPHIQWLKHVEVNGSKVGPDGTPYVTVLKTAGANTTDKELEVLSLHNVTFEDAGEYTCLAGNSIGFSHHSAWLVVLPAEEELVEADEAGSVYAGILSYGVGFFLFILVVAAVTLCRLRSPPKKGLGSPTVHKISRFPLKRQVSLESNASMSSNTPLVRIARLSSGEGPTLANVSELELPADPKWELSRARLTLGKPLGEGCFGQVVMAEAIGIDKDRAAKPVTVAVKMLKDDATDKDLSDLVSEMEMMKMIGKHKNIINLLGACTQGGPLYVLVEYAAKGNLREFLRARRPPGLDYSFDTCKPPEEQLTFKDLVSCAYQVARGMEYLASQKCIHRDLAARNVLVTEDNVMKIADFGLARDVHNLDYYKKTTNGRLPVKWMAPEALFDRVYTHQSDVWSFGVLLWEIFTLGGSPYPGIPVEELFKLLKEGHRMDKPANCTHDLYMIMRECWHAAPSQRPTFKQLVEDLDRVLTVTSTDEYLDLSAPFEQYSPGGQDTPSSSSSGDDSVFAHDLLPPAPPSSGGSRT

B1: FGF-18 (recombinant wild type, mature form without the signal peptide), O76093 29-207 (ligand)
chain: MENVDFRIHVENQTRARDDVSRKQLRLYQLYSRTSGKHIQVLGRRISARGEDGDKYAQLLVETDTFGSQVRIKGKETEFYLCMNRKGKLVGKPDGTSKECVFIEKVLENNYTALMSAKYSGWYVGFTKKGRPRKGPKTRENQQDVHFMKRYPKGQPELQKPFKYTTVTKRSRRIRPTHPA
modifications: here or on the partner: biotinylated in the immobilized receptor assays (sites not given)
With B1, the EC50 scores of FGF ligands in cell proliferation of FDCPR3 was found to be 15.4 ng/mL.

B2: FGF-18^Δ45, O76093 46-207 (ligand)
chain: MDVSRKQLRLYQLYSRTSGKHIQVLGRRISARGEDGDKYAQLLVETDTFGSQVRIKGKETEFYLCMNRKGKLVGKPDGTSKECVFIEKVLENNYTALMSAKYSGWYVGFTKKGRPRKGPKTRENQQDVHFMKRYPKGQPELQKPFKYTTVTKRSRRIRPTHPA
modifications: here or on the partner: biotinylated in the immobilized receptor assays (sites not given)
The molecule B2 came in with an EC50 scores of FGF ligands in cell proliferation of FDCPR3 of 5.44 ng/mL.

B3: FGF-18^Δ51, O76093 52-207 (ligand)
chain: MLRLYQLYSRTSGKHIQVLGRRISARGEDGDKYAQLLVETDTFGSQVRIKGKETEFYLCMNRKGKLVGKPDGTSKECVFIEKVLENNYTALMSAKYSGWYVGFTKKGRPRKGPKTRENQQDVHFMKRYPKGQPELQKPFKYTTVTKRSRRIRPTHPA
modifications: here or on the partner: biotinylated in the immobilized receptor assays (sites not given)
B3 showed an EC50 scores of FGF ligands in cell proliferation of FDCPR3 of 3.97 ng/mL.

B4: FGF-18^Δ37, O76093 38-207 (ligand)
chain: MENQTRARDDVSRKQLRLYQLYSRTSGKHIQVLGRRISARGEDGDKYAQLLVETDTFGSQVRIKGKETEFYLCMNRKGKLVGKPDGTSKECVFIEKVLENNYTALMSAKYSGWYVGFTKKGRPRKGPKTRENQQDVHFMKRYPKGQPELQKPFKYTTVTKRSRRIRPTHPA
modifications: here or on the partner: biotinylated in the immobilized receptor assays (sites not given)
In the case of B4, the EC50 scores of FGF ligands in cell proliferation of FDCPR3 turned out to be 3.14 ng/mL.
